Assay results published in article PMC5700522.

Biological target: T1, PoxCxrA17-150 (Penicillium oxalicum HP7-1) (UniProt A0A2H4WV05)
T1 sequence: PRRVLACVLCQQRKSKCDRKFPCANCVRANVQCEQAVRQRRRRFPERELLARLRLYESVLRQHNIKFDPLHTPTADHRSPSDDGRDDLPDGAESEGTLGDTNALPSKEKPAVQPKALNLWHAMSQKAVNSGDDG
Assay: EMSA
Details: 20 mM Tris-HCl pH 8.0, 50 mM KCl, 5% glycerol, 1 mM DTT, 0.1 mg/mL BSA; 40 ng FAM probe, 0-4.8 ug protein; 4% PAGE in TAE; temperature not stated

binding, binds:
CGGCTTCCAAAGACCCCATATCGACGATCGGCGATTTGGGGAGGGACTAAAGTAGGAGGGAGAGGGAGGGAGCAGAGAGGGAGGGAGCAGAGAGAGAGGGAGAGAGGGAGAGCAAGGGTGAATAACAAGAAAGCGACGATGACAAGGTTGGTAAGATAAC (double strand) [PoxNsdD promoter (CxrA probe)]
GTGAAAGAGGTGCTTGTCGTGATCGCTTGCCATATGTTTCACTGTATGACTTGGGCACCGGAGCGGCACCGTGAATCAGGCTGGCCAAATCCATTGTCGGACTAGATGCTTCGTCCGTTGGGATCGTTGAATTGTGCGGAATCAGTGTCGTCGAGTGATACAATTGGGACGTGAGATTTAGTCACGACCGATAAGGTG (double strand) [PoxCxrB promoter (CxrA probe)]
TTAGGAGTGCTATAAGATGGCGACAGAAGTCGGCCGAGGAGGAAATTCTCGTTTCCATCCACCGAGTCTGCATACATTGGATTTCGAGTTGTCAAAATGAGATACGATTTGATTCTTGCCGCCGGCGCCACTCTGGCACTGGCCGTGCCCCAGGGCATCTCCAAGCGGGCCGGAGGCTTTGTCTGTAAGTTG (double strand) [POX01166/Cel5B promoter (CxrA probe)]
